Measurements reported in patent US20210317225A1 (Genmab, published 2021).

B1: CD40-001-FEALxCD137-001-FEAR (bispecific antibody, human IgG1, kappa)
heavy 1: EVQLQQSGPDLVKPGASVKISCKTSGYTFTEYIMHWVKQSHGKSLEWIGGIIPNNGGTSYNQKFKDKATMTVDKSSSTGYMELRSLTSEDSAVYYCTRREVYGRNYYALDYWGQGTLVTVSSASTKGPSVFPLAPSSKSTSGGTAALGCLVKDYFPEPVTVSWNSGALTSGVHTFPAVLQSSGLYSLSSVVTVPSSSLGTQTYICNVNHKPSNTKVDKRVEPKSCDKTHTCPPCPAPEFEGGPSVFLFPPKPKDTLMISRTPEVTCVVVAVSHEDPEVKFNWYVDGVEVHNAKTKPREEQYNSTYRVVSVLTVLHQDWLNGKEYKCKVSNKALPAPIEKTISKAKGQPREPQVYTLPPSREEMTKNQVSLTCLVKGFYPSDIAVEWESNGQPENNYKTTPPVLDSDGSFLLYSKLTVDKSRWQQGNVFSCSVMHEALHNHYTQKSLSLSPGK
light 1: DIQMTQTTSSLSASLGDRVTITCSASQGINNYLNWYQQKPDGTVKLLIYYTSSLHSGVPSRFSGSGSGTDYSLTISNLEPEDIATYYCQQYSNLPYTFGGGTKLEIKRTVAAPSVFIFPPSDEQLKSGTASVVCLLNNFYPREAKVQWKVDNALQSGNSQESVTEQDSKDSTYSLSSTLTLSKADYEKHKVYACEVTHQGLSSPVTKSFNRGEC
heavy 2: QSVEESGGRLVTPGTPLTLTCTVSGFSLSSYAVSWVRQAPGKGLEWIGVIWNNGATHYATWAKGRFTISKASTTVDLKVTSPTTEDTATYFCARSANDAWSTYSDLWGQGTLVTVSSASTKGPSVFPLAPSSKSTSGGTAALGCLVKDYFPEPVTVSWNSGALTSGVHTFPAVLQSSGLYSLSSVVTVPSSSLGTQTYICNVNHKPSNTKVDKRVEPKSCDKTHTCPPCPAPEFEGGPSVFLFPPKPKDTLMISRTPEVTCVVVAVSHEDPEVKFNWYVDGVEVHNAKTKPREEQYNSTYRVVSVLTVLHQDWLNGKEYKCKVSNKALPAPIEKTISKAKGQPREPQVYTLPPSREEMTKNQVSLTCLVKGFYPSDIAVEWESNGQPENNYKTTPPVLDSDGSFFLYSRLTVDKSRWQQGNVFSCSVMHEALHNHYTQKSLSLSPGK
light 2: DIVMTQTPASVEAAVGGTVTIKCQASQTITNYLSWYQQKPGQPPKLLIYKASTLTSGVSSRFKGSGSGTEFTLTISDLESDDAATYYCQNYYYGSSSGYGFVFGGGTEVVVKRTVAAPSVFIFPPSDEQLKSGTASVVCLLNNFYPREAKVQWKVDNALQSGNSQESVTEQDSKDSTYSLSSTLTLSKADYEKHKVYACEVTHQGLSSPVTKSFNRGEC
B2: CD40-001-FEALxCD137-006-FEAR (bispecific antibody, human IgG1, kappa)
heavy 1: B1 heavy 1
light 1: B1 light 1
heavy 2: QSVEESGGRLVTPGTPLTLTCTVSGFSLSSYAMSWVRQAPGKGLEWIGIISTSGITYYASWAKGRFTISKTSTMVDLKITSPTTEDTATYFCARLNGFDDYVRYFDFWGLGTLVTVSSASTKGPSVFPLAPSSKSTSGGTAALGCLVKDYFPEPVTVSWNSGALTSGVHTFPAVLQSSGLYSLSSVVTVPSSSLGTQTYICNVNHKPSNTKVDKRVEPKSCDKTHTCPPCPAPEFEGGPSVFLFPPKPKDTLMISRTPEVTCVVVAVSHEDPEVKFNWYVDGVEVHNAKTKPREEQYNSTYRVVSVLTVLHQDWLNGKEYKCKVSNKALPAPIEKTISKAKGQPREPQVYTLPPSREEMTKNQVSLTCLVKGFYPSDIAVEWESNGQPENNYKTTPPVLDSDGSFFLYSRLTVDKSRWQQGNVFSCSVMHEALHNHYTQKSLSLSPGK
light 2: AIELTQTPSSVSAAVGGTVTINCQASESIASNLAWYQQKPGQPPKLLIYAASYLASGVPSRFKGSGSGTEYTLTISGVQSADAATYYCQSAFYVSSSDNAFGGGTEVVVKRTVAAPSVFIFPPSDEQLKSGTASVVCLLNNFYPREAKVQWKVDNALQSGNSQESVTEQDSKDSTYSLSSTLTLSKADYEKHKVYACEVTHQGLSSPVTKSFNRGEC
B3: CD40-001-FEALxCD137-007-FEAR (bispecific antibody, human IgG1, kappa)
heavy 1: B1 heavy 1
light 1: B1 light 1
heavy 2: QSLEESGGRLVTPGTPLTLTCTASGFSLSSYDVSWVRQAPGKGLEYIGFIGSDGSAHYATWVKGRFTISKTSTTVDLKITSPTTEDTATYFCARDWNDYWAHDLWGPGTLVTVSSASTKGPSVFPLAPSSKSTSGGTAALGCLVKDYFPEPVTVSWNSGALTSGVHTFPAVLQSSGLYSLSSVVTVPSSSLGTQTYICNVNHKPSNTKVDKRVEPKSCDKTHTCPPCPAPEFEGGPSVFLFPPKPKDTLMISRTPEVTCVVVAVSHEDPEVKFNWYVDGVEVHNAKTKPREEQYNSTYRVVSVLTVLHQDWLNGKEYKCKVSNKALPAPIEKTISKAKGQPREPQVYTLPPSREEMTKNQVSLTCLVKGFYPSDIAVEWESNGQPENNYKTTPPVLDSDGSFFLYSRLTVDKSRWQQGNVFSCSVMHEALHNHYTQKSLSLSPGK
light 2: AQVLTQTTSPVSAAVGGTVTINCQASQIVTSKSALSWYQQKPGQPPRLLIYKASTLASGVPSRFSGSGSGTQFTLTISDLESDDAATYYCAGGYYNSGDLNPFGGGTEVVVKRTVAAPSVFIFPPSDEQLKSGTASVVCLLNNFYPREAKVQWKVDNALQSGNSQESVTEQDSKDSTYSLSSTLTLSKADYEKHKVYACEVTHQGLSSPVTKSFNRGEC
B4: CD40-001-FEALxCD137-005-FEAR (bispecific antibody, human IgG1, kappa)
heavy 1: B1 heavy 1
light 1: B1 light 1
heavy 2: QSVEESGGRLVTPGTPLTLTCTASGFTISDFHVTWVRQAPGKGLEWIGTIITSASTTAYATWARGRFTISKSSTTVNLKIVSPTTEDTATYFCARSTYTDTSGYYFDFWGQGTLVTVSSASTKGPSVFPLAPSSKSTSGGTAALGCLVKDYFPEPVTVSWNSGALTSGVHTFPAVLQSSGLYSLSSVVTVPSSSLGTQTYICNVNHKPSNTKVDKRVEPKSCDKTHTCPPCPAPEFEGGPSVFLFPPKPKDTLMISRTPEVTCVVVAVSHEDPEVKFNWYVDGVEVHNAKTKPREEQYNSTYRVVSVLTVLHQDWLNGKEYKCKVSNKALPAPIEKTISKAKGQPREPQVYTLPPSREEMTKNQVSLTCLVKGFYPSDIAVEWESNGQPENNYKTTPPVLDSDGSFFLYSRLTVDKSRWQQGNVFSCSVMHEALHNHYTQKSLSLSPGK
light 2: AQVLTQTASPVSAAVGGTVIINCQSSQSIYNGNRLSWYQQKPGQPPKLLIYSASTLASGVSSRFKGSGSGTQFTLAISDVQSDDAATYYCLGSYDCDSADCFAFGGGTEVVVERTVAAPSVFIFPPSDEQLKSGTASVVCLLNNFYPREAKVQWKVDNALQSGNSQESVTEQDSKDSTYSLSSTLTLSKADYEKHKVYACEVTHQGLSSPVTKSFNRGEC

The binders below were run against Human CD40 (human, UniProt P25942 21-277) (assay: cell-based or functional assay).
Chain of Human CD40 (P25942 21-277): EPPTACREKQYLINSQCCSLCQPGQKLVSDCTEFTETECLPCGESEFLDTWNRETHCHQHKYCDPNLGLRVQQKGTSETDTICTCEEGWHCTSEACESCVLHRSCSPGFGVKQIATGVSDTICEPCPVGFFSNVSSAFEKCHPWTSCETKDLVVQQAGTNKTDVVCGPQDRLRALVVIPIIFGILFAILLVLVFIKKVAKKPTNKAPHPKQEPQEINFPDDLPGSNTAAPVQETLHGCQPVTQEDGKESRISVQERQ

Binder	luciferase activity (RLU) of NF-KB/293/GFP-Luc cells transduced with CD40, incubated with K562_CD137
B1	~100 ng/mL
B2	~100 ng/mL
B3	~100 ng/mL
B4	~100 ng/mL

What follows are binders tested against Human CD137 (TNR9_Human) (human, UniProt Q07011 24-255) (assay: cell-based or functional assay).
Chain of Human CD137 (TNR9_Human) (Q07011 24-255): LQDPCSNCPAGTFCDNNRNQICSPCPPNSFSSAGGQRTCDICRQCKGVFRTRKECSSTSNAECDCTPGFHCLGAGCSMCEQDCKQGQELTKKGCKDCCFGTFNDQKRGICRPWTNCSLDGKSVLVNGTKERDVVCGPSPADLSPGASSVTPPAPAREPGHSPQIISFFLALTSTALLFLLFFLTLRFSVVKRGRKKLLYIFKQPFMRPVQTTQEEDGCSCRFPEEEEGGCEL

Binder	luciferase activity (RLU) of NF-KB/293/GFP-Luc cells transduced with CD137, incubated with K562_CD40	EC50 for induction of T-cell proliferation (antigen-specific CD8+ T-cell assay, proliferation index curves)
B1	~100 ng/mL	–
B2	~100 ng/mL	–
B3	~100 ng/mL	–
B4	~100 ng/mL	5 ng/mL
